According to IntAct's records for PubMed 11932251:

Target: T1, ranb3_human RANBP3 (UniProt Q9H6Z4)
T1 sequence: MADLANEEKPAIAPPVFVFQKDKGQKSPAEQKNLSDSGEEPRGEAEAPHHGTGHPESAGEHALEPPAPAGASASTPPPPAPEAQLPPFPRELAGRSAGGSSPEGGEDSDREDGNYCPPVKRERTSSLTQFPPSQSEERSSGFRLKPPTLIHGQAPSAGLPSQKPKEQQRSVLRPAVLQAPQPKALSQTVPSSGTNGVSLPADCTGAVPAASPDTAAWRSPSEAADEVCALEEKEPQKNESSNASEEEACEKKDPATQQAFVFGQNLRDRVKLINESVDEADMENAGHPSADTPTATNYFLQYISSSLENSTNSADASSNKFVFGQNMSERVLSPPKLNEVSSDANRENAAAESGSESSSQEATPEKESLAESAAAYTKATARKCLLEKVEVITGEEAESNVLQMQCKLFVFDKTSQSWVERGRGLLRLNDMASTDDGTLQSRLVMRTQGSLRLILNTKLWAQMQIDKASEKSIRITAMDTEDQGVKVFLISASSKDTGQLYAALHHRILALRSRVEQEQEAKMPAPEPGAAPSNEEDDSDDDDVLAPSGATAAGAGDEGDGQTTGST

effect of a mutation on the interaction: increasing interaction
Substance: GTP-binding nuclear protein Ran (Homo sapiens) (from UniProt P62826) Q69L
